# T1: human CHL-1 (residues 25-1096 with a C-terminal 10xHis tag) (human, UniProt O00533 25-1096)
# T1 construct: range 25-1096; also called L1CAM-2; L1CAM2
# T1 sequence: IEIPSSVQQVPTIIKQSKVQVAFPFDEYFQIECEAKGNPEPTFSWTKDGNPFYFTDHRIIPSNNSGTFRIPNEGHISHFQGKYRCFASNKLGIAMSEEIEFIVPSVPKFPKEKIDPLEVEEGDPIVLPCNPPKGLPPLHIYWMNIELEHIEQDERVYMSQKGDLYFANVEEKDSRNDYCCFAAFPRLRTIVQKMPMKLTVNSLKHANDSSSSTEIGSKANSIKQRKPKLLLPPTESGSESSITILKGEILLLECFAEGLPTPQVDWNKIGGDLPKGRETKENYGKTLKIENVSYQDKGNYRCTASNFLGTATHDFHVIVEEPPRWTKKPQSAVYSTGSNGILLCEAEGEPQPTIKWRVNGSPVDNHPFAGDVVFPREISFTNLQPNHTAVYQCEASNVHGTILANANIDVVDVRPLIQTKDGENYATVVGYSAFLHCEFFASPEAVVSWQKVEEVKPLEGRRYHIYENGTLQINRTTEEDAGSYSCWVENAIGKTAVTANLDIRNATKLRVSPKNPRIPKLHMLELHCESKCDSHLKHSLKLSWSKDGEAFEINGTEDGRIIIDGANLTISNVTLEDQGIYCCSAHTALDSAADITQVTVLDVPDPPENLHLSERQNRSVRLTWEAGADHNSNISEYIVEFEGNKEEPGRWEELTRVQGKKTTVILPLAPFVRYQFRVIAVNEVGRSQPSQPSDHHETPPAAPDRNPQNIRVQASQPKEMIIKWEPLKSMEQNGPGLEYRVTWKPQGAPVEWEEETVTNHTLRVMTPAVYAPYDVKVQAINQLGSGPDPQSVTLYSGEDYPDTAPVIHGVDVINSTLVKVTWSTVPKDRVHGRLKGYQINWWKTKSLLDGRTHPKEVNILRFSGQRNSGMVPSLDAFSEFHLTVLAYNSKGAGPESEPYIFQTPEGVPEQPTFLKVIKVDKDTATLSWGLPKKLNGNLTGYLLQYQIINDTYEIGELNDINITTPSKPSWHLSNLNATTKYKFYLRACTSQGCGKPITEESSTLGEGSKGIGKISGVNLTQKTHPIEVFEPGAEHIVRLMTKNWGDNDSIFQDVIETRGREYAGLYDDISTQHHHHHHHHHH
# B1: TDI-Y-005 (antibody, human IgG1, kappa, V domains shown)
# VH: EVQMVESGGGLVQPGGSLRLSCAAPGFIFSSYNMNWVRQAPGKGLEWVSYISSSSSTTYYADSVKGRFTISRDNAKNSLYLQMNSLRDEDTAVYYCASLYSGYDYYYYYGMDVWGQGTTVTVSS
# VL: DIVMTQTPLSSPVSLGQPASISCRSSQSLVHSDGNTYLSWLQQRPGQPPRVLIYKISKRFSGVPDRFSGSGAGTDFTLKISRVEAEDVGVYYCMQATQFPFTFGPGTKVDIKR
# notes: Human IgG1, kappa; also called human 14A10 mAb; fully human 14A10 mAb
# Assays:
# [1] = biological target: T2, soluble cynomolgus monkey L1CAM, His-tagged, monomeric (cynomolgus monkey, UniProt A0A2K5URB5 20-1120); assay: summary table; soluble cynomolgus monkey L1CAM (monomer)
# T2 construct: also called cyL1CAM protein; cynomolgus L1CAM-His
# Experimental: (§1) Cross-reactivity to Cynomolgus Monkey L1CAM. Affinity to cynomolgus L1CAM was measured by BLI using an Octet Red96e instrument. […] The data was prepared by reference well subtraction, and response curves were globally fit to a 1:1 Langmuir binding model.
# [2] = biological target: T2, soluble cynomolgus monkey L1CAM, …; assay: BLI, cynomolgus against human L1CAM-His
# Experimental: as §1
# human L1CAM on cells [3] = biological target: T3, human L1CAM on cells (human, UniProt P32004 20-1257); assay: flow cytometry, MDA-MB-231 cells, AlexaFluor 647 anti-human Fc secondary
# T3 construct: Overexpressed on stably transfected HEK293T cells or endogenous on MCF-7 and MDA-MB-231 cells; also called HEK293T-hL1CAM
# Experimental: (§2) Binding to L1CAM on Cells. […] Cells were then incubated with an AlexaFluor 647 goat anti-human Fc secondary antibody. After washing, the stained cells were analyzed by flow cytometry.
# (§3) The binding curves for each antibody and cell line normalized to secondary antibody only staining (MFI ratio) are shown in FIGS. 14A-14C. EC50 values were determined by non-linear regression (Table 70). […] It is possible that differences in the conformation and oligomerization of L1CAM, depending on the surface expression level, contributed to the binding pattern. […] An avidity effect due to high levels of L1CAM surface expression may have contributed to the strong binding observed in this experiment.
# human L1CAM on cells [4] = biological target: T3, human L1CAM on cells; assay: flow cytometry, MCF-7 cells, AlexaFluor 647 anti-human Fc secondary
# Experimental: as §2, §3
# human L1CAM on cells [5] = biological target: T3, human L1CAM on cells; assay: flow cytometry, HEK293T-hL1CAM cells, AlexaFluor 647 anti-human Fc secondary
# Experimental: as §2, §3
# [6] = biological target: T4, extracellular domain of human L1CAM (isoform 1) fused to a poly-histidine tag via its carboxy terminus (human, UniProt P32004 20-1120); assay: BLI (Octet Red96e), His-tagged human L1CAM on Ni-NTA biosensors, mAb as analyte, 1:1 fit
# T4 construct: Bought (Creative Biomart); also called L1CAM-His; huL1CAM protein
# Experimental: Binding to L1CAM in Solution. Affinity to human L1CAM was measured by BLI using an Octet Red96e instrument. […] The data was prepared by reference well subtraction, and response curves were globally fit to a 1:1 Langmuir binding model.
# [7] = biological target: T1, human CHL-1 (residues 25-1096 with a …); assay: ELISA, plates coated with human CHL-1
# From the text: Selectivity. […] These proteins are other members of the L1 family of cell adhesion proteins and have between 49% and 55% sequence similarity with L1CAM in the extracellular portion. […] Positive control antibodies were included for each homolog. […] Epitope. The extracellular portion of L1CAM contains six immunoglobulin-like (Ig) domains and five fibronectin type III (FN) domains. To narrow down the binding region of the development candidate mAbs, truncated versions of human L1CAM protein (Ig domain, residues 21-605; FN domain, residues 606-1116; each with a C-terminal 6×His tag) were recombinantly produced, followed by a BLI experiment to test binding at 50 and 100 nM. […] 6×His tag is set forth in SEQ ID NO: 316.
# [8] = biological target: T5, soluble mouse L1CAM (monomer), His-tagged (mouse, UniProt P11627 20-1123, limits assumed); assay: summary table; soluble mouse protein (row printed as 'mouse CD40 (monomer)', read as mouse L1CAM)
# T5 construct: read as mouse
# Experimental: Cross-reactivity to Mouse L1CAM. Affinity to mouse L1CAM was measured by BLI using an Octet Red96e instrument. […] The data was prepared by reference well subtraction, and response curves were globally fit to a 1:1 Langmuir binding model.
# T5 sequence (P11627 20-1123 limits assumed): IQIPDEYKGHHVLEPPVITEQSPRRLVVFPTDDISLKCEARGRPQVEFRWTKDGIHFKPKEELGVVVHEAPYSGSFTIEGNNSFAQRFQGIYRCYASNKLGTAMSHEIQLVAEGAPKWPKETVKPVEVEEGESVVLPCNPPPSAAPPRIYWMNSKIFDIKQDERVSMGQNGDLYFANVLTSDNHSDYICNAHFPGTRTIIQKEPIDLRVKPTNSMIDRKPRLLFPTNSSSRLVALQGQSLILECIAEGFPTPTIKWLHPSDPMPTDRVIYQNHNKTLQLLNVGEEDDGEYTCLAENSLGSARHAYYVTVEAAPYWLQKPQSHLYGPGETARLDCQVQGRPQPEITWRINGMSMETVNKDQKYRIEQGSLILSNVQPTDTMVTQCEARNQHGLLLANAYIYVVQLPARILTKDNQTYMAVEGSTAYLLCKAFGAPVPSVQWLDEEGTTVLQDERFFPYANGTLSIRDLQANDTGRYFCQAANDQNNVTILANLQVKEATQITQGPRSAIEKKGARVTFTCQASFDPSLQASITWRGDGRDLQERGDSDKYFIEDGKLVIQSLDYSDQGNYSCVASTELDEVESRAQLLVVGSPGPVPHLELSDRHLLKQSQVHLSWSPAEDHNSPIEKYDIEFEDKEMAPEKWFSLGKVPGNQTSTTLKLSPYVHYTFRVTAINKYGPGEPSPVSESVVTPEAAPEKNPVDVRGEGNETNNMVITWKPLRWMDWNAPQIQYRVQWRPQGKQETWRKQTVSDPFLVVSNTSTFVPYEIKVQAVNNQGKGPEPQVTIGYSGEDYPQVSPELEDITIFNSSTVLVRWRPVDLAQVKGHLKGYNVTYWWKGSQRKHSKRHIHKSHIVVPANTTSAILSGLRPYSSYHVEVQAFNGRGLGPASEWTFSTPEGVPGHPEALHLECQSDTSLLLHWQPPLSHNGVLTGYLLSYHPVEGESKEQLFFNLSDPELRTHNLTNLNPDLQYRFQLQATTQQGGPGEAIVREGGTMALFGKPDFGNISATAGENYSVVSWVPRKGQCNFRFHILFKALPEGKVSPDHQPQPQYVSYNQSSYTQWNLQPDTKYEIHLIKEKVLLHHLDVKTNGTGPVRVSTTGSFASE
# T3 sequence (P32004 20-1257): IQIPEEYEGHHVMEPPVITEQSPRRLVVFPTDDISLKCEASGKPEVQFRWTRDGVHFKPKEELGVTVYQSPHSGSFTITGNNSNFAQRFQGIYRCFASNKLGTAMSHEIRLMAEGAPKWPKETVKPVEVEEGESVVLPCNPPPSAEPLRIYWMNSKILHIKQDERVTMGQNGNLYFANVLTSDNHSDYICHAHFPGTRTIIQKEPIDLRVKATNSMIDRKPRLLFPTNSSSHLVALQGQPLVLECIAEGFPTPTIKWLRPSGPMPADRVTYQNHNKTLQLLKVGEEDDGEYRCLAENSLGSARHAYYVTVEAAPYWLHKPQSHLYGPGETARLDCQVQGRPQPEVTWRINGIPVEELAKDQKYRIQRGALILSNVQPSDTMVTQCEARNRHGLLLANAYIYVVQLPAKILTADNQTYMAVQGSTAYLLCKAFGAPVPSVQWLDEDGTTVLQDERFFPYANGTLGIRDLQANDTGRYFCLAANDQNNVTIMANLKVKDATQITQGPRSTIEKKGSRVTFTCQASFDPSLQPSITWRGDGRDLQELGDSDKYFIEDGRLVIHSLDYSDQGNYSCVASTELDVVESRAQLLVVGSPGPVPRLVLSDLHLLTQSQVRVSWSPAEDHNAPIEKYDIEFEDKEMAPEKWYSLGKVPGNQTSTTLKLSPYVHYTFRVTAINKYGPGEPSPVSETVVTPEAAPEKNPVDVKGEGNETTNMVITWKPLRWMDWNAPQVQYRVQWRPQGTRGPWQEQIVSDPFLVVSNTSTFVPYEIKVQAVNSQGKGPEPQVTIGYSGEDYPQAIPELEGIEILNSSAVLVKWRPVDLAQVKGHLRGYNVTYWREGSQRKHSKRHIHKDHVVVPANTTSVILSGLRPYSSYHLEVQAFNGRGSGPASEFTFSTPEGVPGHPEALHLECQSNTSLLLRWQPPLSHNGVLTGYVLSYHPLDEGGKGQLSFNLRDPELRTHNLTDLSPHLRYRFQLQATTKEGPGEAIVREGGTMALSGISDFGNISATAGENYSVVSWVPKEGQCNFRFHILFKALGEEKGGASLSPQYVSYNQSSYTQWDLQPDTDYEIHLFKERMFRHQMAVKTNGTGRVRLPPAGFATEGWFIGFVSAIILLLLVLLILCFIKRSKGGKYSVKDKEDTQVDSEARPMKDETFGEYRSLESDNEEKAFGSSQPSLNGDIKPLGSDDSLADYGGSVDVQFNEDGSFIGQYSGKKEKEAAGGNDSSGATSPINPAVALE
# T4 sequence (P32004 20-1120): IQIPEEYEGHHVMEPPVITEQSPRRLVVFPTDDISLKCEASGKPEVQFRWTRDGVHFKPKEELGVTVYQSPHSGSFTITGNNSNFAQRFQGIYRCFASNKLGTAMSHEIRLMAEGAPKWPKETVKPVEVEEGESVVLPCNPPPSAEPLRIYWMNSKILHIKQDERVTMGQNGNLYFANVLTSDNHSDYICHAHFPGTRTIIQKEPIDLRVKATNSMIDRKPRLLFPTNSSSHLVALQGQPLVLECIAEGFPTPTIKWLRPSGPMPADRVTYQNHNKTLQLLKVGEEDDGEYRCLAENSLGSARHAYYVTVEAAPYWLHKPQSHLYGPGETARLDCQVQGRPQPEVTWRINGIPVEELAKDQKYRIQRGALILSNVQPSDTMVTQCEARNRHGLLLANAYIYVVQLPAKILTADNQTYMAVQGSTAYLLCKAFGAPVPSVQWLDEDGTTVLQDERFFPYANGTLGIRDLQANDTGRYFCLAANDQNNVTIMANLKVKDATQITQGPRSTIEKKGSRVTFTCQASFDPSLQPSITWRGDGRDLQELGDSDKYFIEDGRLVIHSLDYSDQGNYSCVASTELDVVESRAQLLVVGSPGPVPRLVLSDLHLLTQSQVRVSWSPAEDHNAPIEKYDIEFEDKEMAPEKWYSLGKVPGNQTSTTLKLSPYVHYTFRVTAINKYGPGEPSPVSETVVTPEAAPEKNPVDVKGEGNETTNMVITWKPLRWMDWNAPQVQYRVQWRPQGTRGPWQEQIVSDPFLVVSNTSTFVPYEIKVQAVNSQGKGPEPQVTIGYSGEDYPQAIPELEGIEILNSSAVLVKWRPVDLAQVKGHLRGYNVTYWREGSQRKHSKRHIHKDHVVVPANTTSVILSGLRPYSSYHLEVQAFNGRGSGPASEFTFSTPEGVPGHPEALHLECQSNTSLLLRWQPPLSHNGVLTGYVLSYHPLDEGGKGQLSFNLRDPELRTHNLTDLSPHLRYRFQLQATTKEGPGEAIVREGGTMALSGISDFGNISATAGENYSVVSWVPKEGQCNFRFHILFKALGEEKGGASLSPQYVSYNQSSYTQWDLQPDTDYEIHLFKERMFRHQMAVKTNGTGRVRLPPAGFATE
binder,measurement,setting,value
B1,Kd,[1],1.3 nM
same,koff,[1],0.00012 s⁻¹
same,kon,[1],93000 M⁻¹ s⁻¹
same,fold difference of KD against human L1CAM,[2],≤ 3.3 fold
same,EC50,human L1CAM on cells [3],7.1 nM
same,EC50,human L1CAM on cells [4],2.5 nM
same,EC50,human L1CAM on cells [5],2 nM
same,Kd,[6],4.3 nM
same,koff,[6],0.00014 s⁻¹
same,kon,[6],33000 M⁻¹ s⁻¹
same,binding result,[7],no binding (tested: 1 µM)
same,Kd,[8],34 nM
same,koff,[8],0.0011 s⁻¹
same,kon,[8],31000 M⁻¹ s⁻¹

# — US20250340636A1 (Memorial Sloan Kettering, published 2025)
